Data on 42 molecules can be found in patent US20210388087A1 (Chugai, published 2021).

Where a chain is given by its changes, count along the chain named. Names may count otherwise.

To fix the notation:
T1: Human CD3eg linker (human)
T1 construct: Single chain: epsilon and gamma subunits of human CD3 joined by a 29-mer linker, Flag-tag at the C-terminus; also called recombinant human CD3
T1 chain: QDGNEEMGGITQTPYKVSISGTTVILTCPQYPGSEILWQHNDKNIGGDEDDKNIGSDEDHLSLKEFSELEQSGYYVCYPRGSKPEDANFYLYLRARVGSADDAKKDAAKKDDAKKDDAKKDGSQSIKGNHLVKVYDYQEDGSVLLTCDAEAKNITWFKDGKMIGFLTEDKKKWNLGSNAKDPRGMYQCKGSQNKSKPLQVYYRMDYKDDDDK

B1: H183/L072 VH K52bW (antibody, name in Kabat numbering, V domains shown)
VH: QVQLVESGGGLVQPGRSLRLSCAASGFTFSNAWMHWVRQAPGKGLEWVAQIKDWGNAYAAYYAPSVKGRFTISRDDSKNSIYLQMNSLKTEDTAVYYCHYVHYASASTVLPAFGVDAWGQGTTVTVSS
VL: DIVMTQSPLSLPVTPGEPASISCQASQELVHMNRNTYLHWYQQKPGQAPRLLIYKVSNRFPGVPDRFSGSGSGTDFTLKISRVEAEDVGVYYCAQGTSVPFTFGQGTKLEIK
B2: H183/L072 VH M34W (antibody, name in Kabat numbering, V domains shown)
VH: B1 VH with M34W, W54K
VL: B1 VL
B3: H183/L072 VH M34P (antibody, name in Kabat numbering, V domains shown)
VH: B1 VH with M34P, W54K
VL: B1 VL
B4: H183/L072 VH N31I (antibody, name in Kabat numbering, V domains shown)
VH: B1 VH with N31I, W54K
VL: B1 VL
B5: H183/L072 VH N31F (antibody, name in Kabat numbering, V domains shown)
VH: B1 VH with N31F, W54K
VL: B1 VL
B6: H183/L072 VH K64I (antibody, name in Kabat numbering, V domains shown)
VH: B1 VH with W54K, K67I
VL: B1 VL
B7: H183/L072 VH K64L (antibody, name in Kabat numbering, V domains shown)
VH: B1 VH with W54K, K67L
VL: B1 VL
B8: H183/L072 VH M34T (antibody, name in Kabat numbering, V domains shown)
VH: B1 VH with M34T, W54K
VL: B1 VL
B9: H183/L072 VH N31K (antibody, name in Kabat numbering, V domains shown)
VH: B1 VH with N31K, W54K
VL: B1 VL
B10: H183/L072 VH N31G (antibody, name in Kabat numbering, V domains shown)
VH: B1 VH with N31G, W54K
VL: B1 VL
B11: H183/L072 VH M34H (antibody, name in Kabat numbering, V domains shown)
VH: B1 VH with M34H, W54K
VL: B1 VL
B12: H183/L072 VH M34D (antibody, name in Kabat numbering, V domains shown)
VH: B1 VH with M34D, W54K
VL: B1 VL
B13: H183/L072 VH L100dM (antibody, name in Kabat numbering, V domains shown)
VH: B1 VH with W54K, L110M
VL: B1 VL
B14: H183/L072 VH M34F (antibody, name in Kabat numbering, V domains shown)
VH: B1 VH with M34F, W54K
VL: B1 VL
B15: H183/L072 VH K64A (antibody, name in Kabat numbering, V domains shown)
VH: B1 VH with W54K, K67A
VL: B1 VL
B16: H183/L072 VH L100dA (antibody, name in Kabat numbering, V domains shown)
VH: B1 VH with W54K, L110A
VL: B1 VL
B17: H183/L072 VH M34K (antibody, name in Kabat numbering, V domains shown)
VH: B1 VH with M34K, W54K
VL: B1 VL
B18: H183/L072 VH N31L (antibody, name in Kabat numbering, V domains shown)
VH: B1 VH with N31L, W54K
VL: B1 VL
B19: H183/L072 VH N31R (antibody, name in Kabat numbering, V domains shown)
VH: B1 VH with N31R, W54K
VL: B1 VL
B20: H183/L072 VH M34Y (antibody, name in Kabat numbering, V domains shown)
VH: B1 VH with M34Y, W54K
VL: B1 VL
B21: H183/L072 VH K52bY (antibody, name in Kabat numbering, V domains shown)
VH: B1 VH with W54Y
VL: B1 VL
B22: H183/L072 VH M34I (antibody, name in Kabat numbering, V domains shown)
VH: B1 VH with M34I, W54K
VL: B1 VL
B23: H183/L072 VH M34V (antibody, name in Kabat numbering, V domains shown)
VH: B1 VH with M34V, W54K
VL: B1 VL
B24: H183/L072 VH L100dI (antibody, name in Kabat numbering, V domains shown)
VH: B1 VH with W54K, L110I
VL: B1 VL
B25: H183/L072 VH N31M (antibody, name in Kabat numbering, V domains shown)
VH: B1 VH with N31M, W54K
VL: B1 VL
B26: H183/L072 VH M34S (antibody, name in Kabat numbering, V domains shown)
VH: B1 VH with M34S, W54K
VL: B1 VL
B27: H183/L072 VH N31E (antibody, name in Kabat numbering, V domains shown)
VH: B1 VH with N31E, W54K
VL: B1 VL
B28: H183/L072 VH M34E (antibody, name in Kabat numbering, V domains shown)
VH: B1 VH with M34E, W54K
VL: B1 VL
B29: H183/L072 VH L100dP (antibody, name in Kabat numbering, V domains shown)
VH: B1 VH with W54K, L110P
VL: B1 VL
B30: H183/L072 VH N31P (antibody, name in Kabat numbering, V domains shown)
VH: B1 VH with N31P, W54K
VL: B1 VL
B31: H183/L072 VH N31A (antibody, name in Kabat numbering, V domains shown)
VH: B1 VH with N31A, W54K
VL: B1 VL
B32: H183/L072 VH K64P (antibody, name in Kabat numbering, V domains shown)
VH: B1 VH with W54K, K67P
VL: B1 VL
B33: H183/L072 VH M34Q (antibody, name in Kabat numbering, V domains shown)
VH: B1 VH with M34Q, W54K
VL: B1 VL
B34: H183/L072 VH M34N (antibody, name in Kabat numbering, V domains shown)
VH: B1 VH with M34N, W54K
VL: B1 VL
B35: H183/L072 VH M34L (antibody, name in Kabat numbering, V domains shown)
VH: B1 VH with M34L, W54K
VL: B1 VL
B36: H183/L072 VH M34R (antibody, name in Kabat numbering, V domains shown)
VH: B1 VH with M34R, W54K
VL: B1 VL
B37: H183/L072 VH N31Q (antibody, name in Kabat numbering, V domains shown)
VH: B1 VH with N31Q, W54K
VL: B1 VL
B38: H183/L072 VH N31D (antibody, name in Kabat numbering, V domains shown)
VH: B1 VH with N31D, W54K
VL: B1 VL
B39: H183/L072 VH N31H (antibody, name in Kabat numbering, V domains shown)
VH: B1 VH with N31H, W54K
VL: B1 VL
B40: H183/L072 VH M34A (antibody, name in Kabat numbering, V domains shown)
VH: B1 VH with M34A, W54K
VL: B1 VL
B41: H183/L072 VH M34G (antibody, name in Kabat numbering, V domains shown)
VH: B1 VH with M34G, W54K
VL: B1 VL
B42: H183/L072 VH K64M (antibody, name in Kabat numbering, V domains shown)
VH: B1 VH with W54K, K67M
VL: B1 VL

The target of this assay is T1, Human CD3eg linker. Nature of the assay: Biacore SPR, vs template H183/L072.
On to B1, for which the “fold change of affinity” value came to 0.6 fold. In the case of B2, the “fold change of affinity” value was 0 fold. The result for B3 reads 0 fold; that for B4, 0.5 fold; that for B5, 0.5 fold. The result for B6 reads 1 fold; that for B7, 1.1 fold. The result for B8 reads 0 fold. As for B9, the “fold change of affinity” value worked out at 0.4 fold. For B10, the “fold change of affinity” value came out at 0.3 fold. As to B11, the “fold change of affinity” value was determined as 0 fold.

On to B12, for which the “fold change of affinity” value was 0 fold. The result for B13 reads 1 fold. As for B14, the “fold change of affinity” value was found to be 0.1 fold. The result for B15 reads 1 fold; that for B16, 1.2 fold. The result for B17 reads 0 fold; that for B18, 0.2 fold; that for B19, 0.5 fold.

For the molecule B20, the “fold change of affinity” value was found to be 0 fold. The result for B21 reads 0.7 fold.

In the case of B22, the “fold change of affinity” value amounted to 0.6 fold. The result for B23 reads 0.1 fold; that for B24, 1.2 fold. The result for B25 reads 0.2 fold; that for B26, 0 fold; that for B27, 0 fold. As to B28, the “fold change of affinity” value was determined as 0 fold. The result for B29 reads 1.4 fold; that for B30, 0.1 fold; that for B31, 0.4 fold. The result for B32 reads 1.6 fold; that for B33, 0 fold; that for B34, 0 fold. The result for B35 reads 0.7 fold. For the molecule B36, the “fold change of affinity” value was determined as 0 fold. In the case of B37, the “fold change of affinity” value was found to be 0.2 fold. The result for B38 reads 0.1 fold; that for B39, 0.3 fold; that for B40, 0 fold.

With B41, the “fold change of affinity” value was found to be 0 fold. The result for B42 reads 1.1 fold.
